{"source": "patent WO2017055393A1", "about": "(dated 2017)", "binders": {"B1": {"name": "TIM3 TCB molecule: anti-Tim-3 / anti-CD3 T cell bispecific (TCB) molecule, \"2+1 IgG CrossFab, inverted\" with charge modifications (VH/VL exchange in CD3 … (bispecific antibody)", "heavy 1": "QVTLKESGPGILQPSQTLRLTCSFSGFSLSTSGMSVGWIRQPSGKGLEWLAHIWLNDDVFFNPALKSRLTISKDTSNNQVFLQIASVVTADTATYYCVRANGYLYALDYWGQGTSVTVSSASTKGPSVFPLAPSSKSTSGGTAALGCLVEDYFPEPVTVSWNSGALTSGVHTFPAVLQSSGLYSLSSVVTVPSSSLGTQTYICNVNHKPSNTKVDEKVEPKSCDKTHTCPPCPAPEAAGGPSVFLFPPKPKDTLMISRTPEVTCVVVDVSHEDPEVKFNWYVDGVEVHNAKTKPREEQYNSTYRVVSVLTVLHQDWLNGKEYKCKVSNKALGAPIEKTISKAKGQPREPQVCTLPPSRDELTKNQVSLSCAVKGFYPSDIAVEWESNGQPENNYKTTPPVLDSDGSFFLVSKLTVDKSRWQQGNVFSCSVMHEALHNHYTQKSLSLSP", "heavy 2": "not shown", "light 1": "EVQLLESGGGLVQPGGSLRLSCAASGFTFSTYAMNWVRQAPGKGLEWVSRIRSKYNNYATYYADSVKGRFTISRDDSKNTLYLQMNSLRAEDTAVYYCVRHGNFGNSYVSWFAYWGQGTLVTVSSASVAAPSVFIFPPSDEQLKSGTASVVCLLNNFYPREAKVQWKVDNALQSGNSQESVTEQDSKDSTYSLSSTLTLSKADYEKHKVYACEVTHQGLSSPVTKSFNRGEC", "light 2": "QIVLTQSPAIMSASPGQKVTITCSASSSVNYTQWYQQKLGSSPKLWIYDAFKLAPGVPARFSGSGTGTSYSLTISSMEAEDAASYFCHQWSSYPWTFGGGTKLEIKRTVAAPSVFIFPPSDRKLKSGTASVVCLLNNFYPREAKVQWKVDNALQSGNSQESVTEQDSKDSTYSLSSTLTLSKADYEKHKVYACEVTHQGLSSPVTKSFNRGEC"}}, "target": "T1, human Tim-3 (T cell Immunoglobulin- and Mucin domain-containing molecule 3) (human, UniProt Q8TDQ0 22-301)", "T1 sequence (looked up)": "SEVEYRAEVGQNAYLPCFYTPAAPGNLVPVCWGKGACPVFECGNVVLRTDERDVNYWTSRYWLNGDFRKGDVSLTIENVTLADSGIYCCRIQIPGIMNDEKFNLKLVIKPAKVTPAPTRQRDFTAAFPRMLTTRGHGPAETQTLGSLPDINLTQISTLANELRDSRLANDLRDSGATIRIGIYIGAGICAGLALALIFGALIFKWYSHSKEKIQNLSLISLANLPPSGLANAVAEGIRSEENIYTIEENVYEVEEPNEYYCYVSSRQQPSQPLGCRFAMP", "experiment": "cell-based or functional assay", "data": [{"binder": "B1", "values": [{"measurement": "Cytotoxic activity TCB (LDH), IC50 pM, CMK cells (AML)", "value": 300, "unit": "pM"}, {"measurement": "Cytotoxic activity TCB (LDH), IC50 pM, EOL-1* cells (AML; 24h pre-treated with 10 ng/ml PMA)", "value": 300, "unit": "pM"}, {"measurement": "Cytotoxic activity TCB (LDH), IC50 pM, KG-1 cells (AML)", "value": 1000, "unit": "pM"}, {"measurement": "Cytotoxic activity TCB (LDH), IC50 pM, Karpas-299 cells (NHTCL)", "value": 500, "unit": "pM"}, {"measurement": "Cytotoxic activity TCB (LDH), IC50 pM, Kasumi-1 cells (AML)", "value": 3000, "unit": "pM"}, {"measurement": "Cytotoxic activity TCB (LDH), IC50 pM, Pfeiffer cells (NHBCL)", "value": 10, "unit": "pM"}, {"measurement": "Cytotoxic activity TCB (LDH), IC50 pM, RPMI-8226 cells (MM)", "value": 100, "unit": "pM"}, {"measurement": "Cytotoxic activity TCB (LDH), IC50 pM, SR cells (LCIBL)", "value": 100, "unit": "pM"}, {"measurement": "EC50 of tumor cell lysis, 24 h LDH release, CHO K1 cells stably expressing human TIM-3, thawed expanded T cells, E:T 1:1", "value": 0.003, "unit": "nM"}, {"measurement": "EC50 of tumor cell lysis, 24 h LDH release, Pfeiffer cells, thawed expanded T cells, E:T 1:1", "value": 0.06, "unit": "nM"}]}]}
